The Immune Epitope Database (IEDB)

Columns and labels:
[1] = molecular target: HLA-B*08:01; experiment: IEDB peptide-MHC binding, purified MHC/competitive/radioactivity; filed as Kd, often an IC50 or EC50 that approximates it; ≥ and ≤ were set here for values at or beyond the usual limits of such assays
[2] = molecular target: HLA-B*44:02; experiment: as above
[3] = molecular target: HLA-B*40:01; experiment: as above
[4] = molecular target: HLA-B*44:03; experiment: as above
[5] = molecular target: HLA-A*32:01; experiment: as above
[6] = molecular target: HLA-A*26:01; experiment: IEDB peptide-MHC binding, purified MHC/competitive/fluorescence; filed as Kd, often an IC50 or EC50 that approximates it; ≥ and ≤ were set here for values at or beyond the usual limits of such assays
[7] = molecular target: HLA-A*31:01; experiment: IEDB peptide-MHC binding, purified MHC/direct/fluorescence; filed as Kd, often an IC50 or EC50 that approximates it; ≥ and ≤ were set here for values at or beyond the usual limits of such assays; conditions: source organism: Coxiella burnetii
[8] = molecular target: HLA-B*58:01; experiment: as above; conditions: source organism: Coxiella burnetii
[9] = molecular target: HLA-A*03:01; experiment: as above; conditions: source organism: Coxiella burnetii
[10] = molecular target: HLA-A*02:01; experiment: as above; conditions: source organism: Coxiella burnetii
[11] = molecular target: HLA-B*44:02; experiment: as above; conditions: source organism: Coxiella burnetii
[12] = molecular target: HLA-B*40:01; experiment: as above; conditions: source organism: Coxiella burnetii
[13] = molecular target: HLA-A*69:01; experiment: as above; conditions: source organism: Coxiella burnetii
[14] = molecular target: HLA-B*07:02; experiment: as above; conditions: source organism: Coxiella burnetii
[15] = molecular target: HLA-A*11:01; experiment: as above; conditions: source organism: Coxiella burnetii
[16] = molecular target: HLA-A*01:01; experiment: as above; conditions: source organism: Coxiella burnetii
[17] = molecular target: HLA-B*08:01; experiment: as above; conditions: source organism: Coxiella burnetii
[18] = molecular target: HLA-B*27:05; experiment: as above; conditions: source organism: Coxiella burnetii
[19] = molecular target: HLA-B*15:01; experiment: as above; conditions: source organism: Coxiella burnetii
[20] = molecular target: HLA-A*26:01; experiment: as above; conditions: source organism: Coxiella burnetii
[21] = molecular target: HLA-A*29:02; experiment: IEDB peptide-MHC binding, purified MHC/competitive/radioactivity; filed as Kd, often an IC50 or EC50 that approximates it; ≥ and ≤ were set here for values at or beyond the usual limits of such assays
[22] = molecular target: HLA-A*01:01; experiment: as above
[23] = molecular target: HLA-A*30:02; experiment: as above
[24] = molecular target: HLA-A*26:01; experiment: as above
[25] = molecular target: HLA-A*30:01; experiment: as above
[26] = molecular target: HLA-B*35:01; experiment: as above
[27] = molecular target: HLA-B*18:01; experiment: IEDB peptide-MHC binding, purified MHC/direct/fluorescence; filed as Kd, often an IC50 or EC50 that approximates it; ≥ and ≤ were set here for values at or beyond the usual limits of such assays; conditions: source organism: Bacillus cereus H3081.97
[28] = molecular target: HLA-A*02:06; experiment: IEDB peptide-MHC binding, purified MHC/competitive/radioactivity; filed as Kd, often an IC50 or EC50 that approximates it; ≥ and ≤ were set here for values at or beyond the usual limits of such assays
[29] = molecular target: HLA-B*53:01; experiment: as above; conditions: source organism: Dengue virus 2 Jamaica/1409/1983
[30] = molecular target: HLA-B*51:01; experiment: as above
[31] = molecular target: HLA-B*07:02; experiment: as above
[32] = molecular target: HLA-A*02:03; experiment: as above; conditions: source organism: Vaccinia virus WR
[33] = molecular target: HLA-A*02:02; experiment: as above; conditions: source organism: Vaccinia virus WR
[34] = source organism: Dengue virus 2 Jamaica/1409/1983
[35] = source organism: Dengue virus 3 Martinique/1243/1999
[36] = source organism: Vaccinia virus WR
[37] = source organism: Escherichia coli
[38] = source organism: Mammarenavirus guanaritoense
[39] = source organism: Dengue virus 4 Philippines/H241/1956
[40] = source organism: Dengue virus 1 Brazil/97-11/1997
[41] = source organism: Dengue virus 2 Peru/IQT2913/1996
[42] = source organism: Dengue virus 1 Singapore/S275/1990
[43] = source organism: Mammarenavirus brazilense
[44] = source organism: Lymphocytic choriomeningitis virus (strain WE)

AAGRKSLTL
Kd [1, 34]: 210 nM

AEISGSSPI
Kd [2, 34]: 14.6 nM | Kd [3, 34]: 0.66 nM | Kd [4, 34]: 25.5 nM

AEMEEALKGL
Kd [2, 35]: 26 nM | Kd [3, 35]: 15.5 nM | Kd [4, 35]: 56.2 nM

AETQNSSFI
Kd [2, 35]: 2.67 nM | Kd [3, 35]: 142 nM | Kd [4, 35]: 123 nM

CINVRRCAL
Kd [1, 36]: 6.94 nM

DEDCAHWKEA
Kd [5, 34]: ≥ 69900 nM

DTAKAFAYL
Kd [6, 37]: 186 nM

DVLRQYVLM
Kd [6, 37]: 2140 nM

EAAGIAACL
Kd ([6]; source organism: Escherichia coli F11): 14.6 nM

EEIAVQNWL
Kd [2, 34]: 6.91 nM | Kd [3, 34]: 14.8 nM | Kd [4, 34]: 10.6 nM

EEMPLVWDL
Kd [7]: ≥ 20000 nM | Kd [8]: ≥ 20000 nM | Kd [9]: ≥ 20000 nM | Kd [10]: ≥ 20000 nM | Kd [11]: 9330 nM | Kd [12]: 18.9 nM | Kd [13]: ≥ 20000 nM | Kd [14]: ≥ 20000 nM | Kd [15]: ≥ 20000 nM | Kd [16]: ≥ 20000 nM | Kd [17]: ≥ 20000 nM | Kd [18]: ≥ 20000 nM | Kd [19]: ≥ 20000 nM | Kd [20]: ≥ 20000 nM

EEVQVLALE
Kd [4, 34]: 10500 nM

ELILDRGYY
Kd ([6]; source organism: Bacillus cereus G9241): 211 nM

ESALNISGY
Kd [5, 38]: ≥ 77800 nM | Kd [21, 38]: ≥ 35400 nM | Kd [22, 38]: 37.4 nM | Kd [23, 38]: 733 nM | Kd [24, 38]: 118 nM | Kd [25, 38]: ≥ 67300 nM

FEEVMRGKFG
Kd [3, 35]: 1340 nM

FIRSTMPLVM
Kd [26, 39]: 2960 nM

FPVQFFIVF
Kd [27]: ≥ 20000 nM

FRRLTSREVL
Kd [1, 40]: 104 nM

FTLTVAWRTA
Kd [5, 35]: 9400 nM | Kd [28, 35]: 376 nM

GEGLHKLGY
Kd [2, 34]: 120 nM | Kd [4, 34]: 280 nM

GESSPNPTV
Kd [2, 41]: 321 nM | Kd [3, 41]: 15.6 nM

GEVDSFSLGL
Kd [3, 42]: 2.13 nM | Kd [4, 42]: 158 nM

GFMRFFQLL
Kd [1, 36]: 2.39 nM

GTFHTMWHVT
Kd [5, 34]: 13400 nM

HPGFTIMAAI
Kd [29]: 66.5 nM | Kd [30, 34]: 5710 nM | Kd [31, 34]: 29.5 nM

IGVIITWIGM
Kd [5, 34]: ≥ 59000 nM

IIWKGIYTY
Kd [5, 36]: 3.28 nM

ILRKIFYSV
Kd [1, 36]: 0.102 nM

IVYGRSNAI
Kd [32]: 15.8 nM | Kd [5, 36]: 3.15 nM | Kd [33]: 14.9 nM | Kd [28, 36]: 30.2 nM

KEISNMLSII
Kd [2, 35]: 29.4 nM | Kd [3, 35]: 52.2 nM | Kd [4, 35]: 267 nM

KELEGILLP
Kd ([4]; source organism: Homo sapiens): 356 nM

KPTLDFELI
Kd [29]: 279 nM | Kd [30, 34]: ≥ 31200 nM

KTKRILPSI
Kd [5, 39]: 125 nM | Kd [25, 39]: 6.75 nM

LEKHGAERL
Kd [3, 40]: 23.7 nM

LINERDYSRY
Kd [5, 43]: ≥ 69900 nM | Kd [21, 43]: 16500 nM | Kd [22, 43]: 1030 nM | Kd [23, 43]: 633 nM | Kd [24, 43]: 1930 nM | Kd [25, 43]: ≥ 70400 nM

LINLTTIAY
Kd [5, 43]: 8970 nM | Kd [21, 43]: 345 nM | Kd [22, 43]: 576 nM | Kd [23, 43]: 1450 nM | Kd [24, 43]: 12200 nM | Kd [25, 43]: 9390 nM

LLLVTHYAI
Kd ([5]; source organism: Dengue virus 3 Singapore/8120/1995): 41.6 nM

LLQMEDKAWL
Kd [1, 34]: 2010 nM

LPVWLAYRVA
Kd [30, 34]: 4990 nM | Kd [26, 34]: 311 nM

LSNGASLTI
Kd [5, 36]: 73.5 nM

MEAQLIRQM
Kd [2, 34]: 11.2 nM | Kd [3, 34]: 802 nM | Kd [4, 34]: 119 nM

MLKRARNRV
Kd [1, 40]: 25 nM

MPIRYQTTAV
Kd [30, 40]: 347 nM | Kd [31, 40]: 11.3 nM | Kd [26, 40]: 48 nM

MTKEASREY
Kd [5, 44]: ≥ 56800 nM | Kd [21, 44]: 616 nM | Kd [22, 44]: 3010 nM | Kd [23, 44]: 67.5 nM | Kd [24, 44]: 17.7 nM | Kd [25, 44]: 108 nM

NDMISYGGGW
Kd [2, 39]: 6.18 nM | Kd [4, 39]: 71.2 nM

NEMILMKMK
Kd [2, 39]: 400 nM | Kd [4, 39]: 2910 nM

NLAERFCTE
Kd [1, 36]: 1900 nM

NNRVLFNNF
Kd [1, 36]: 773 nM

NNRYRFAFL
Kd [1, 36]: 31.1 nM

RLNQPVNNI
Kd [5, 36]: 25 nM

RSTSLSVSL
Kd [5, 34]: 100 nM

SGMRRQEQI
Kd [1, 36]: 16.5 nM

STVGASGVY
Kd ([6]; source organism: Orthohantavirus sinnombreense): ≤ 1 nM

TAIANQAAIL
Kd [1, 40]: 422 nM

TLKRRSWPLN
Kd [5, 35]: 19100 nM | Kd [25, 35]: 5450 nM

TRKVRSNAA
Kd [1, 34]: 6.25 nM

VATTFVTPM
Kd [26, 34]: 205 nM

VEDYGFGVF
Kd [3, 34]: 315 nM

VEKVETWAL
Kd [3, 35]: 14.9 nM

WIEDNPWMED
Kd [5, 35]: 4160 nM

WMIRILIGFL
Kd ([1]; source organism: Dengue virus 4 Dominica/814669/1981): 168 nM

WMVHRQWFFD
Kd [5, 35]: 4960 nM

YRPLHFQYV
Kd [1, 36]: 245 nM
